B1: Antibody 316P (antibody, V domains shown)
VH: EVQLVESGGGLVQPGGSLRLSCAASGFTFNNYAMNWVRQAPGKGLDWVSTISGSGGTTNYADSVKGRFIISRDSSKHTLYLQMNSLRAEDTAVYYCAKDSNWGNFDLWGRGTLVTVSS
VL: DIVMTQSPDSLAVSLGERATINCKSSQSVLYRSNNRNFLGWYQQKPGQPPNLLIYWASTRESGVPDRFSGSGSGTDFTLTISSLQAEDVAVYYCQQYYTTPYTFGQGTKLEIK
B2: Evolocumab (antibody, V domains shown)
VH: QVQLVQSGAEVKKPGASVKVSCKASGYTLTSYGISWVRQAPGQGLEWMGWVSFYNGNTNYAQKLQGRGTMTTDPSTSTAYMELRSLRSDDTAVYYCARGYGMDVWGQGTTVTVSS
VL: QSALTQPASVSGSPGQSITISCTGTSSDVGGYNSVSWYQQHPGKAPKLMIYEVSNRPSGVSNRFSGSKSGNTASLTISGLQAEDEADYYCNSYTSTSMVFGGGTKLTVL

Biological target: T1, Human PCSK9 form a' (human, UniProt Q8NBP7 31-692)
T1 construct: also called PCSK9 a'
Test: SPR (ProteOn XPR36), antibody captured on anti-human IgG, PCSK9 as analyte, 25 C, 1:1 model

| Binder | Kd | koff | kon |
| --- | --- | --- | --- |
| B1 | 0.181 nM | 0.000272 s⁻¹ | 1.5e+06 M⁻¹ s⁻¹ |
| B2 | 0.185 nM | 2.29e-05 s⁻¹ | 124000 M⁻¹ s⁻¹ |
